# Assay results from patent US20180009889A1 (Novartis, published 2018).
# Tests used:
# [1] = target: Human Notch3-Gal4-VP16 (human); assay: cell-based or functional assay
# [2] = target: T1, EGF32 NRR (cyno) (cynomolgus monkey); assay: ELISA: IgG titrated on directly coated recombinant antigen
# T1 construct: recombinant, C-terminal six histidine tag
# [3] = target: T1, EGF32 NRR (cyno); assay: Biacore (SPR); set-up not stated on the sheet
# [4] = target: T2, EGF32 NRR (mouse) (mouse, UniProt Q61982); assay: ELISA: IgG titrated on directly coated recombinant antigen
# T2 construct: recombinant, C-terminal six histidine tag
# [5] = target: EGF32 NRR (human); assay: as above
# [6] = target: T3, Human Notch 3 (wild type) (human, UniProt Q9UM47 40-2321); assay: FACS on U2OS_N3 cells, with U2OS_parental cells as control
# T3 construct: also called Notch 3 receptor
# [7] = target: T2, EGF32 NRR (mouse); assay: Biacore (SPR); set-up not stated on the sheet
# [8] = target: EGF32 NRR (human); assay: Biacore (SPR); set-up not stated on the sheet
# [9] = target: T1, EGF32 NRR (cyno); assay: ELISA: IgG titrated on directly coated recombinant antigen; remark: listed apart in the source
# [10] = target: T4, Human Notch3 Negative Regulatory Region (NRR), residues 1378 to 1640 of human Notch3, with C-terminal His tag (human, UniProt Q9UM47 1378-1640); assay: HDx-MS without Ca2+, IgG with Notch 3 NRR
# T4 construct: also called Notch3 NRR; Notch 3 NRR
# Protocol: Deuterium exchange was quenched by diluting the exchanged solution 1:1 with (6 M Urea and 1 M TCEP pH=2.5) for 5 minutes at 2° C. After quenching, the sample was injected onto the Waters UPLC system where it was digested using an immobilized pepsin column that was maintained at 12° C. After digestion, peptides were retained on a Waters UPLC HSS T3 2.1×5 mm pre-column.
# [11] = target: T5, cyno LBD; assay: ELISA: IgG titrated on directly coated recombinant antigen
# T5 construct: also called N3_EGF4-11_Fc cyno
# [12] = target: T5, cyno LBD; assay: as above; remark: listed apart in the source
# [13] = target: T3, Human Notch 3 (wild type); assay: FACS on U2OS_N3 cells (U2OS over-expressing human Notch3)
# [14] = target: Human Notch3-Gal4-VP16 (human); assay: cell-based or functional assay; remark: listed apart in the source
# [15] = target: Human Notch3-Gal4-VP16 (human); assay: cell-based or functional assay; remark: listed apart in the source
# [16] = target: T5, cyno LBD; assay: Biacore (SPR); set-up not stated on the sheet
Binder,"% inhibition, Delta 1 co-culture Notch3 reporter gene assay [1] [%]","% inhibition, Jagged1 co-culture Notch3 reporter gene assay [1] [%]","IC50, Delta 1 co-culture Notch3 reporter gene assay [1] [nM]","IC50, Jagged1 co-culture Notch3 reporter gene assay [1] [nM]",EC50 [2] [nM],Kd [3] [nM],Kd [7] [nM],also measured
"20345 (antibody, human IgG1, kappa, V domains shown) VH: QVQLVQSGAEVKKPGSSVKVSCKASGGTFSSYTISWVRQAPGQGLEWMGWIKPKLGMAHYAQKFQGRVTITADESTSTAYMELSSLRSEDTAVYYCARGSFWFGYWGQGTLVTVSS VL: DIQMTQSPSSLSASVGDRVTITCRASQGINNYLNWYQQKPGKAPKLLIYDASKLQSGVPSRFSGSGSGTDFTLTISSLQPEDFATYYCQQYLQYPMTFGQGTKVEIKR",19,-88,0.3,0.4,0.6,0.7,–,–
"20350 (antibody, human IgG1, kappa, V domains shown) VH: QVQLVQSGAEVKKPGSSVKVSCKASGGTFSSYTISWVRQAPGQGLEWMGWIKPRWGAAHYAQKFQGRVTITADESTSTAYMELSSLRSEDTAVYYCARGSFWFGYWGQGTLVTVSS VL: DIQMTQSPSSLSASVGDRVTITCRASQGINNYLNWYQQKPGKAPKLLIYDASKLQSGVPSRFSGSGSGTDFTLTISSLQPEDFATYYCQQYLQYPMTFGQGTKVEIKR",–,–,–,–,1.4,0.3,–,–
"12225 (antibody, human IgG1, kappa, V domains shown, also called MOR 12225) VH: QVQLVQSGAEVKKPGSSVKVSCKASGGTFSSYTISWVRQAPGQGLEWMGWIKPAFGTANYAQKFQGRVTITADESTSTAYMELSSLRSEDTAVYYCARGSFWFGYWGQGTLVTVSS VL: DIQMTQSPSSLSASVGDRVTITCRASQGINNYLNWYQQKPGKAPKLLIYDASKLQSGVPSRFSGSGSGTDFTLTISSLQPEDFATYYCQQYLQYPMTFGQGTKVEIKR",-8,-165,–,5.8,0.9,2.7,–,–
"20351 (antibody, human IgG1, kappa, V domains shown) VH: QVQLVQSGAEVKKPGSSVKVSCKASGGTFSSYTISWVRQAPGQGLEWMGWIKPRYGAAMYAQKFQGRVTITADESTSTAYMELSSLRSEDTAVYYCARGSFWFGYWGQGTLVTVSS VL: DIQMTQSPSSLSASVGDRVTITCRASQGINNYLNWYQQKPGKAPKLLIYDASKLQSGVPSRFSGSGSGTDFTLTISSLQPEDFATYYCQQYLQYPMTFGQGTKVEIKR",30,-50,1.4,0.8,0.8,1.2,–,–
"12215 (antibody, human IgG1, kappa, V domains shown, also called MOR 12215) VH: QVQLVESGGGLVKPGGSLRLSCAASGFTFSTYVMHWVRQAPGKGLEWVGRIRSNTYGGITDYAAPVKGRFTISRDDSKNTLYLQMNSLKTEDTAVYYCARAEARYRDVWGQGTLVTVSS VL: DIQMTQSPSSLSASVGDRVTITCRASQSISSHLNWYQQKPGKAPKLLIYAASNLQSGVPSRFSGSGSGTDFTLTISSLQPEDFATYYCQQDYHTPFTFGQGTKVEIKR",-1,-5,–,–,0.6,2.7,1,EC50 [4]: 2.2 nM; EC50 [5]: 0.9 nM; EC50 (read off the curve) [6]: ~0.5 nM; Kd [8]: 0.9 nM
"20358 (antibody, human IgG1, kappa, V domains shown) VH: QVQLVQSGAEVKKPGSSVKVSCKASGGTFRTYAMHWVRQAPGQGLEWMGGIVPYHGITDYAQKFQGRVTITADESTSTAYMELSSLRSEDTAVYYCARDDYSTYAFAYWGQGTLVTVSS VL: DIQMTQSPSSLSASVGDRVTITCRASQSIASYLAWYQQKPGKAPKLLIYDASNLQSGVPSRFSGSGSGTDFTLTISSLQPEDFATYYCQQAYKTPYTFGQGTKVEIKR",–,–,–,–,0.5,2.7,70,–
"12981 (antibody, human IgG1, kappa, V domains shown, also called MOR 12981) VH: QVQLVQSGAEVKKPGSSVKVSCKASGGTFRTYAMHWVRQAPGQGLEWMGGIIPIFGIANYAQKFQGRVTITADESTSTAYMELSSLRSEDTAVYYCARDDYSTYAFAYWGQGTLVTVSS VL: DIQMTQSPSSLSASVGDRVTITCRASQSIASYLAWYQQKPGKAPKLLIYDASNLQSGVPSRFSGSGSGTDFTLTISSLQPEDFATYYCQQAYKTPYTFGQGTKVEIKR",16,56,22,0.2,0.4,19,–,EC50 (read off the curve) [9]: ~0.6 nM
"20337 (antibody, human IgG1, kappa, V domains shown) VH: QVQLVESGGGLVKPGGSLRLSCAASGFTFSTYVMHWVRQAPGKGLEWVGRIRANAYGGAADYAAPVKGRFTISRDDSKNTLYLQMNSLKTEDTAVYYCARAEARYRDVWGQGTLVTVSS VL: DIQMTQSPSSLSASVGDRVTITCRASQSISSHLNWYQQKPGKAPKLLIYAASNLQSGVPSRFSGSGSGTDFTLTISSLQPEDFATYYCQQDYHTPFTFGQGTKVEIKR",18,60,6.4,4.6,0.6,0.4,4.4,EC50 [4]: 0.7 nM; EC50 [5]: 0.8 nM; binding result [10]: binds; Kd [8]: 0.5 nM
"12229 (antibody, human IgG1, lambda, V domains shown) VH: QVQLVESGGGLVKPGGSLRLSCAASGFTFSSYTMNWVRQAPGKGLEWVGRIKTKTNGGTTDYAAPVKGRFTISRDDSKNTLYLQMNSLKTEDTAVYYCARERSRAGSIFDPWGQGTLVTVSS VL: DIVLTQPPSVSGAPGQRVTISCSGSSSNIGFNYVSWYQQLPGTAPKLLIYYNNQRPSGVPDRFSGSKSGTSASLAITGLQAEDEADYYCSTWTGTSESHVFGGGTKLTVLG",85,77,5.5,0.7,–,–,–,"EC50 (read off the curve) [11]: ~0.3 nM; EC50 [12]: 0.5 nM; binding result [13]: binds; IC50 (read off the curve), Delta1 co-culture reporter gene assay [14]: ~5 nM; IC50 (read off the curve), Jagged1 co-culture reporter gene assay [15]: ~0.8 nM; Kd [16]: 24 nM"
